{"source": "patent US20060142193", "key": {"[1]": {"target": "endogenous ROCK1 of neonatal rat cardiomyocytes (UniProt Q63644)", "sequence (Q63644 2-1369)": "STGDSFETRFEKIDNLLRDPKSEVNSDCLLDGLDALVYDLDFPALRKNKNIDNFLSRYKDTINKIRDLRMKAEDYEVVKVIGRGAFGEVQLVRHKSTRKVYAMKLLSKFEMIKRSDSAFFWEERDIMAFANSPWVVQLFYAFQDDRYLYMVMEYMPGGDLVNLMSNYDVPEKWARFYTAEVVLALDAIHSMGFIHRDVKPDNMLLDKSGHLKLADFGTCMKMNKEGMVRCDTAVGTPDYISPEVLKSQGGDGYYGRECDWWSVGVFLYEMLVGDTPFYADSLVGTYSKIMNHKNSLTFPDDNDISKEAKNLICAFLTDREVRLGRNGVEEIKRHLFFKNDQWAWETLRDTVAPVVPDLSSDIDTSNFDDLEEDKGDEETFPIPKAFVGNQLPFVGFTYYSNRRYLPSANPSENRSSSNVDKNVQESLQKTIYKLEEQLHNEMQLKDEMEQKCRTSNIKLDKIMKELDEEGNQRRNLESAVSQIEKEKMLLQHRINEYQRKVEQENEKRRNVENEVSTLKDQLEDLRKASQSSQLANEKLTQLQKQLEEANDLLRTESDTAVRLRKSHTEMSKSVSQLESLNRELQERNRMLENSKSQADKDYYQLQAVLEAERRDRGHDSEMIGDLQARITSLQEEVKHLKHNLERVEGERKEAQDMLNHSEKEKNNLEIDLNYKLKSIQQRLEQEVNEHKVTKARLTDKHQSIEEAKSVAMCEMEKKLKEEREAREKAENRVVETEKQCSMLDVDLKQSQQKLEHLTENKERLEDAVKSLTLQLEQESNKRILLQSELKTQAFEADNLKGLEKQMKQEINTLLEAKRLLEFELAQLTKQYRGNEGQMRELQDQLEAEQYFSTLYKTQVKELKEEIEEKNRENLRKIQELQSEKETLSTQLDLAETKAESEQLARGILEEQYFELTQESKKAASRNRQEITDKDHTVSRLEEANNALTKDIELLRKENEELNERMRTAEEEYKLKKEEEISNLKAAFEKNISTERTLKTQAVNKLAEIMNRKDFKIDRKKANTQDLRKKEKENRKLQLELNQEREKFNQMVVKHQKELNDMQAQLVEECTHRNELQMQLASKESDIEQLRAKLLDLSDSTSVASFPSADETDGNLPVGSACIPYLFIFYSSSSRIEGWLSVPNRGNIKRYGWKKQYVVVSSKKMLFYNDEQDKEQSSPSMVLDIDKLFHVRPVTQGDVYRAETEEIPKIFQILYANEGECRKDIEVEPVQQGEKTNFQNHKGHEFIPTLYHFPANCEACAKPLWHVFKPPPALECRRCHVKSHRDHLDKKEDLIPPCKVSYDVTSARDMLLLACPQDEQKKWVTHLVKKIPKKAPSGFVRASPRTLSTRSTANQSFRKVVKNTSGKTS"}, "TAT-SRF245A/254A": {"target": "TAT-SRF245A/254A (UniProt P11831)"}, "TAT-SRF": {"target": "TAT-SRF (UniProt P11831)"}, "[2]": {"target": "T1, serum response factor (SRF) (UniProt P11831)", "T1 sequence": "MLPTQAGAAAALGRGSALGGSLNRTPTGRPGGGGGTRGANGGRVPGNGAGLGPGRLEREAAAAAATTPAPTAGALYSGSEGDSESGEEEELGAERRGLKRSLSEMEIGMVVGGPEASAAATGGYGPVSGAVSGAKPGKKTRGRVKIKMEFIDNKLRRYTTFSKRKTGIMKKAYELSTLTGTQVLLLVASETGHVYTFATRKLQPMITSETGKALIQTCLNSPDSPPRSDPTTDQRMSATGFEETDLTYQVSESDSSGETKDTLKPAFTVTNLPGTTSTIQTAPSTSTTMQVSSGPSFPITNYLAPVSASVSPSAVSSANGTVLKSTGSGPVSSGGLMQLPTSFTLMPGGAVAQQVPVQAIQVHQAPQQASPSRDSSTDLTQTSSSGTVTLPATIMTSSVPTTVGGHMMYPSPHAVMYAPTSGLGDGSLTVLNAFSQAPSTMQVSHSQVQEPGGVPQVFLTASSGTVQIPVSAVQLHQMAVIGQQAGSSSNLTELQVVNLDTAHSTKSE"}}}
{"substance": "conditional caspase 3 (iCasp3)", "values": [{"measurement": "130 kDa ROCK1 cleavage fragment by Western blot of infected cardiomyocytes", "setting": "[1]", "value": "The 130 kDa cleavage fragment of ROCK1 was detected in cardiomyocytes infected with Ad-G/iCasp3 and treated with CID"}]}
{"substance": "active caspase 3 (recombinant caspase 3)", "values": [{"measurement": "in vitro cleavage by recombinant caspase 3", "setting": "TAT-SRF245A/254A", "value": "SRF245A/254A mutant was resistant to caspase 3 cleavage"}, {"measurement": "in vitro cleavage by recombinant caspase 3", "setting": "TAT-SRF", "value": "only TAT-SRF was cleaved by caspase 3"}, {"measurement": "in vitro cleavage of SRF", "setting": "[2]", "value": "Activated caspase 3 is able to cleave SRF in vitro"}]}
